B1: 2094 (antibody, V domains shown)
VH: EVQLVESGGGVVRPGGSLRLSCAASGFIFDDYDMTWVRQAPGKGLEWVSGINWNGGSTGYADSVKGRFTISRDNAKNSLYLQMNSLRAEDTALYHCAVIMSPIPRYSGYDWAGDAFDIWGQGTMVTVSS
VL: SSELTQDPAVSVALGQTVRITCQGDSLRSYYASWYQQKPGQVPILVIYDKNNRPSGIPDRFSGSSSGNTASLTITGAQAEDEADYYCNSRDSSGNAVVFGGGTKLTVL
B2: 2096 (antibody, V domains shown)
VH: QVQLVQSGAEVKKPGASVKVSCKASGYTFGSFDINWVRQATGQGLEWMGRMNSNSGNTAYAQKFQGRVTMTRDTSTNTAYMELSSLRSEDTAMYYCARMRSGWPTHGRPDDFWGRGTLVTVSS
VL: QSVLTQAPSASGTPGQRVTISCSGSNSNIGSYTINWYQQLPGTAPKLLIYGNDQRTSGVPDRFSGSKFGTSASLAISGLQSEDENNYYCAVWDDSLNGLVFGGGTKLTVL

Target: SARS2 spike protein with C-terminal 19aa deletion, on S protein pseudotyped lentivirus (SARS-CoV-2, UniProt P0DTC2 13-1254)
Experiment: cell-based or functional assay

| Binder | Pseudovirus neutralization IC50 |
| --- | --- |
| B1 | 3 ng/mL |
| B2 | 3.3 ng/mL |

Source: patent publication US20240182548A1 (AstraZeneca / MedImmune, published 2024)
